The source of these data is paper PMC8552709, “Mechanistic Insights into the Capsule-Targeting Depolymerase from a Klebsiella pneumoniae Bacteriophage” (Microbiology Spectrum, 2021).

This data set deals with the molecule itself. Briefly: SEC; HiLoad 16/600 Superdex 200-pg column, 25 mM Tris (pH 8.0), 200 mM NaCl; peak checked by reducing SDS-PAGE.

B1: DpK2 (gp02), capsule depolymerase / tailspike protein of Klebsiella phage RAD2 (enzyme, UniProt P0DTN8 1-907, looked up)
chain: MALYREGKAAMAADGTVTGTGTKWQSSLSLIRPGATIMFLSSPIQMAVVNKVVSDTEIKAITTSGAVVASTDYAILLSDSLTVDGLAQDVAETLRHYQSQETVIADAVEFFKSFDFDSLQNLANQIKADSESAESSAAAAAASESKAKTSEDNAKSSENAAKNSEVAAETTRDQIQQIIDNAGDQSTLVVLAQPDGFDSIGRVSSFAALRNLKPKKSGQHVLLTSYYDGWAAENKMPTGGGEFISSIGTATDDGGYIAAGPGYYWTRVVNNNSFTAEDFGCKTTATPPPNFNVLPAELFDNTAMMQAAFNLAISKSFKLNLSTGTYYFESSDTLRITGPIHIEGRPGTVFYHNPSNKANPKTDAFMNISGCSAGRISSINCFSNSYLGKGINFDRSVGDNRKLVLEHVYVDTFRWGFYVGEPECINQIEFHSCRAQSNYFQGIFIESFKEGQEYGHSAPVHFFNTICNGNGPTSFALGATYKTTKNEYIKVMDSVNDVGCQAYFQGLSNVQYIGGQLSGHGSPRNTSLATITQCNSFIIYGTDLEDINGFTTDGTAITADNIDAIESNYLKDISGAAIVVSSCPGFKIDSPHIFKIKTLSTIKLMNNTYNYEIGGFTPDEALKYNVWDANGLATNRISGVIHPRLVNSRLGINSVAFDNMSNKLDVSSLIHNETSQIVGLTPSTGSNVPHTRKMWSNGAMYSSTDLNNGFRLNYLSNHNEPLTPMHLYNEFSVSEFGGSVTESNALDEIKYIFIQTTYANSGDGRFIIQALDASGSVLSSNWYSPQSFNSTFPISGFVRFDVPTGAKKIRYGFVNSANYTGSLRSHFMSGFAYNKRFFLKIYAVYNDLGRYGQFEPPYSVAIDRFRVGDNTTQMPSIPASSATDVAGVNEVINSLLASLKANGFMSS
notes: DpK2, product of gp02 of Klebsiella phage RAD2 (genome GenBank MW655991); 98 kDa; the open reading frame was cloned between NcoI and XhoI of pPROEX htb; residues 191 to 906 are modelled in the cryo-EM structure; Homotrimer; The forward primer ([residues removed]) reads M-G-A-L-Y-R-E-G-K, so the NcoI site may add a glycine after the first methionine; no removal of the His tag is described; also …
The term stoichiometry N denotes a count of units in the complex or per binding partner. B1: the “stoichiometry N” value came to 3.
